We go through five substances from PMC6539845.

Like-named read-outs stand apart in the source and are kept apart here.

For assay [1], the target named is single-ring α7 mutant α7^SR (S96D, S100D, F102R, Y104R) (human). In words: native MS; α4 or α6 (4 μM monomers) mixed with α7^SR (4 μM heptamer), 20 °C, 1 h; α2 incubated with α7^SR before buffer exchange; 150 mM ammonium acetate.
Assay [2] concerns the target monomeric α7 mutant α7* (N-terminal residues 1-22 replaced with a hexahistidine-containing segment) (human) (UniProt P25788). In words: SEC; α1–α6 (20 μM monomers) mixed with an equimolar amount of α7*, 20 °C, 1 h; SDS-PAGE (CBB) of the purified complexes.
For assay [3], the target named is human proteasome α7 subunit, wild type (human) (UniProt P25788). In words: native MS; α4 or α6 (4 μM monomers) mixed with α7 (2 μM tetradecamer), 20 °C, 1 h, 150 mM ammonium acetate.
Sequence of human proteasome α7 subunit, wild type (human) (P25788 whole entry): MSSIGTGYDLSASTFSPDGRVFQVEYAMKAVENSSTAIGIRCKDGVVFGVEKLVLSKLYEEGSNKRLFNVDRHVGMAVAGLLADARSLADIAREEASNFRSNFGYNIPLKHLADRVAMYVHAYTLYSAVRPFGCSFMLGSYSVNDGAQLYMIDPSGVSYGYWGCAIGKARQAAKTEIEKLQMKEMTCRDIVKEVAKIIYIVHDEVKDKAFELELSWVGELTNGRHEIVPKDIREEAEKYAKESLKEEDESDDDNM
The target is the same in assay [4]. The description is as above. This is another data set of the same source.
For assay [5] the target is unchanged. In words: SEC; wild-type α7 in the presence of α1–α6 or α7* (20 μM monomers); loss of the tetradecamer peak. On the technique in general: In gel filtration, larger molecules generally elute earlier.
Assay [6] deals with human proteasome α6 subunit, short isoform (human) (UniProt P25786). In words: native MS; single proteins, 5–20 μM monomers, 150 mM ammonium acetate (pH 6.8–8.0), nanoflow electrospray.
Assay [7] has as its target human proteasome α7 subunit, wild type (human) (UniProt P25788). The assay is described as above.
Assay [8] addresses single-ring α7 mutant α7^SR (S96D, S100D, F102R, Y104R) (human). Described as above.
For assay [9] the target is unchanged. Described as above. This is another data set of the same source.
For assay [10] the target is unchanged. Briefly: atomic force microscopy; α7^SR alone (Figure S2); height of the ring.

Sequence of human proteasome α6 subunit, short isoform (P25786 whole entry, canonical isoform): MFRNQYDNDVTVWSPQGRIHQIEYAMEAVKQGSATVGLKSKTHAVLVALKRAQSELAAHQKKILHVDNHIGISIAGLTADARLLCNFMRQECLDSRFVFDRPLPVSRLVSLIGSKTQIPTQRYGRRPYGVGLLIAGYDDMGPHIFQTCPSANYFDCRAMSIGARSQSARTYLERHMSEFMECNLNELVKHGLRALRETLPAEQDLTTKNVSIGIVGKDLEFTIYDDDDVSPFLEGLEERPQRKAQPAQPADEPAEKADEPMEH
Sequence of human proteasome α4 subunit (O14818 whole entry): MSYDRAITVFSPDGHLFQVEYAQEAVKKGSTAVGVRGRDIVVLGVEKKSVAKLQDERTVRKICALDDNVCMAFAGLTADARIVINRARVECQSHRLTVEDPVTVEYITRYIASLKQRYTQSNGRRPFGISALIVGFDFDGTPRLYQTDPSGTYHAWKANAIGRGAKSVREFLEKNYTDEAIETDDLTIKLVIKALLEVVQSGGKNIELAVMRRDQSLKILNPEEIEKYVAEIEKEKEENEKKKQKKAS
Sequence of human proteasome α2 subunit (P25787 whole entry): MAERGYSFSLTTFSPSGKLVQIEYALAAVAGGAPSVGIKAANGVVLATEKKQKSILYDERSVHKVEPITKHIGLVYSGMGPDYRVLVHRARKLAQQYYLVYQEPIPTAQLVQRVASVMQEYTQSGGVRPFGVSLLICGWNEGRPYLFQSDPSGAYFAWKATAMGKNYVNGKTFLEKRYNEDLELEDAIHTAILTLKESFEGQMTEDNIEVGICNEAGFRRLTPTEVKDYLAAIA
Sequence of human proteasome α7 subunit, wild type (P25788 whole entry): as the sequence (P25788 whole entry) above

For “human proteasome α2 subunit (from UniProt P25787 1-234) (natural protein)”, the stoichiometry N (α7^SR subunits per α2) in assay [1] amounted to 7.

As a reminder, the stoichiometry N is the number of molecules, sites or subunits per partner or assembly. Consider “human proteasome α4 subunit (from UniProt O14818 1-248) (natural protein)”, for which the stoichiometry N in [2] is 1.2 α7· per α4. The same substance gave a stoichiometry N (α7^SR subunits per α4) in assay [1] of 7.

For “human proteasome α6 subunit, short isoform (from UniProt P25786 1-263) (natural protein)”, the stoichiometry N (α7 subunits per α6) came out at 7 in [3] and 14 in assay [4]. In assay [1], this substance registered a stoichiometry N (α7^SR subunits per α6) of 7. Further, in [5], the percent of the α7 tetradecamer disrupted into smaller complexes turned out to be 50%. The stoichiometry N in assay [6] turned out to be 2.

In turn, “human proteasome α7 subunit, wild type (from UniProt P25788 1-255) (natural protein)” had a stoichiometry N in assay [7] of 14.

On to “single-ring α7 mutant α7^SR (S96D, S100D, F102R, Y104R) (natural protein)”, for which the stoichiometry N in assay [8] amounted to 14; in assay [9], 7; in assay [10], 7.
